The target in assay [1] is T1, major surface antigen 1 (SAG1) of Toxoplasma gondii (Toxoplasma gondii, UniProt P13664 48-336).
T1 chain: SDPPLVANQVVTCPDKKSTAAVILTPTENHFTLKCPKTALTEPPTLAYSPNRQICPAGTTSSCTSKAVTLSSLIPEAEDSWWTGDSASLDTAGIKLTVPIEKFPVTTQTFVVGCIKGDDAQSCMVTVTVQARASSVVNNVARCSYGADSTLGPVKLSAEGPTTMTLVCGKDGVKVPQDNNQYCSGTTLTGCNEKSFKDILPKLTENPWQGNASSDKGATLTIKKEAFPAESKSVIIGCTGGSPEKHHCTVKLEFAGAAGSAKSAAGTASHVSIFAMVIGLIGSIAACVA
The experiment in a line: SPR; two-state fit (kd1). In general terms: In SPR one partner is held on a chip, and binding of the other changes the refractive index at the surface.

In assay [2] the target is T1, major surface antigen 1 (SAG1) of …. As to the kind of experiment: SPR; two-state fit (KDapp).
The target is the same in assay [3]. The experiment in a line: SPR.
Assay [4] has the same target. The experiment in a line: SPR; Langmuir 1:1 fit.
The target is the same in assay [5]. As to the kind of experiment: SPR.

Substitutions are numbered along the chain they refer to.

B1: scFv S1A0 (scFv, V domains shown)
VH: QVQLQQSGAELVRPGVSVKISCKGSGYTFTDYGMHWVKQSHAKSLEWIGIISTYSGDASYNQKFKGKATMTVDKSSSTAYMELARLTSEDSAIYYCARSSTWYYFDYWGQGTTLTVSS
VL: DIQVTQTTSSLSASLGDRVTISCRASQDISNYLNWYQQKPDGTVKLLIYYTSRLHSGVPSRFSGSGSGTDYSLTISNLEQEDIATYFCQQGNTLPYTFGGGTKLEIK
A word on the koff: it is the first-order rate constant of dissociation. Lower therefore signals slow dissociation. On to B1, for which the koff in assay [1] turned out to be 0.0137 s⁻¹. In assay [2], this molecule returned a Kd of 181 nM.

B2: scFv S1B4 (scFv, V domains shown)
VH: B1 VH with V16T, G24A, E82Q, A84S, R85S, I93V, T113L, L114V, S118A
VL: B1 VL with V4M, T8P, Q80P, F87Y
Consider B2, for which the Kd in assay [3] was determined as 323 nM; in assay [4], 323 nM; in assay [2], 329 nM. This molecule also yielded a koff in assay [1] of 0.0255 s⁻¹.

B3: scFv S1C4 (scFv, V domains shown)
VH: B1 VH with S40R, H41P, A42G, K43H, S44G
VL: B1 VL with V4M, T8P, Q80P, F87Y
With B3, the Kd stood at 61 nM in assay [3], 61 nM in assay [4] and 59 nM in assay [2]. This molecule also showed a koff in assay [1] of 0.0158 s⁻¹.

B4: scFv S1A4 (scFv, V domains shown)
VH: B1 VH
VL: B1 VL with V4M, T8P, Q80P, F87Y
As to B4, the Kd in assay [3] is 236 nM; in assay [4], 236 nM; in assay [2], 117 nM. In assay [1], this molecule yielded a koff of 0.0142 s⁻¹.

B5: scFv S1D4 (scFv, V domains shown)
VH: QVQLQQSGAELVRPGTSVKISCKASGYTFTDYGMHWVKQRPGHGLEWIGIISTYSGDASYNQKFKGKATMTVDKSSSTAYMQLSSLTSEDSAVYYCARSSTWYYFDYWGQGTLVTVSA
VL: B1 VL with V4M, T8P, Q80P, F87Y
As for B5, the results for the Kd in assay [5], in assay [4] and in assay [2] were 400 nM, 400 nM and 360 nM, respectively. The molecule further registered a koff in assay [1] of 0.0183 s⁻¹.

The values are drawn from article PMC7344962 (2020).
